The source of these data is article PMC4268493.

This experiment concerns the target TNF-FLAG (UniProt P01375). Nature of the experiment: SPR. On the technique in general: SPR reads the build-up and loss of mass on a sensor chip optically.
Chain of UniProt P01375 (P01375 whole entry): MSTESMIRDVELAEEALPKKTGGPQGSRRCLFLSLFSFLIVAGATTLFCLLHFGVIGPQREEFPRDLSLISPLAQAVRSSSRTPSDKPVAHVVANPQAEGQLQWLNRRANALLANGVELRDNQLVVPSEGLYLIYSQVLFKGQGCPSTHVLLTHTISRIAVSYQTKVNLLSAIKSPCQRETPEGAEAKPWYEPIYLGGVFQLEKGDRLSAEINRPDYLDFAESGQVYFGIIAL

What is called Kd is a measure of binding affinity in units of concentration. A low value points to a tighter complex. As for “Δ6-TNFR1-Fc fusion protein (from UniProt P19438-4 30-183)”, the dissociation constant (Kd) turned out to be 15.6 nM.
